Source: US20170342140A1

Key:
[1] = target: glycopeptide B (SEQ ID NO: 21), BSA-PEG4 conjugate; assay: antigen solid-phase ELISA, AAL lectin as positive control
[2] = target: non-fucosylated glycopeptide B (SEQ ID NO: 22), BSA-PEG4 conjugate; assay: antigen solid-phase ELISA, WGA lectin as positive control

| Substance | OD450 [1] [OD450] | OD450 [2] [OD450] |
| --- | --- | --- |
| AAL lectin (from UniProt P18891 2-313) | 0.335 |  |
| WGA lectin |  | 3 |
